The values that follow come from publication PMC7665024, “Anti-apoptotic BCL-2 regulation by changes in dynamics of its long unstructured loop” (Communications Biology, 2020).

Data set [1] deals with BCL-2 EEE (T69E/S70E/S87E; EEE-PB). Nature of the data set: FRET association with Pacific Blue-labeled BCL-2 EEE. Particulars: Fig. 1d.
The test system of data set [2] is BAX-induced MOMP, isolated mitochondria. Description: In vitro cytochrome c release assay, isolated mitochondria (BCL-2 mutants). Particulars: Bax+BimBH3 = 100, mean of n = 6. The class given is biochemical, mouse. An excerpt: To verify this implication, we performed in vitro cytochrome c release assay using isolated mitochondria. […] Lane 3 (Fig. 2a) is a positive control for the cytochrome c release assays. […] (More experimental results in support of the observed BCL-2 activity are given in Supplementary Fig. 3.)
Fig. 2 In vitro assays for evaluating BCL-2 activity. a Cytochrome c release assay with various BCL-2 mutants at varying concentrations. All of the release amounts are normalized to the result caused by the BimBH3-induced BAX activation (lane 3). […] GUVs provide a MOM-like environment devoid of endogenous mitochondrial proteins.
A Dounce homogenizer was used with 20 strokes to homogenize mouse liver tissue (0.2 mg). The mitochondria fraction was separated using centrifugation according to the Mitochondria Isolation Kit (Thermo Scientific). Mitochondria Assay Buffer A (MAB A) (200 mM mannitol, 68 mM sucrose, 10 mM HEPES, 110 mM KCl, 1 mM EDTA, […], 0.1% BSA, protease inhibitor) was used to wash the mitochondria fraction, followed by centrifugation at 12,000 × g. The pellet was collected and resuspended using enough MAB B (i.e., MBA A without 0.1% BSA) and then quantified by bradford assay (Bio-Rad) to yield a final protein content of the mitochondrial fraction ~3 mg/mL. The final mitochondria fraction was placed on ice for further downstream processing or stored at −80 °C with additional 300 mM trehalose for future use[38]. […] The mixture was then incubated with BAX (0.1 μM) and 10 μL of the mitochondrial fraction ([…]) for 0.5 h at 37 °C. Final volume was adjusted to 30 μL. Following centrifugation at 12,000×g for 10 min, the supernatant was subjected to subsequent immunoblotting (IB). Quantification of IB was done using ImageJ software (version 1.49, NIH). The fraction of cytochrome c released (%) is calculated by (I–I0)/(Imax–I0)×100%, where Imax and I0 are the analyzed intensities of cytochrome c with and without activated BAX, respectively.
Samples were resolved by SDS–PAGE (15%) and electroblotted onto a 0.45 μm PVDF membrane (GE Healthcare). Primary antibodies used in this study included rabbit anti-BAX N20 (Santa Cruz Biotechnology), mouse anti-BCL-2(C2) (Santa Cruz Biotechnology) and mouse anti-cytochrome c antibodies (clone 7H8.2C12, Millipore). Detection was achieved using sheep anti-mouse IgG HRP (GE Healthcare) and donkey anti-rabbit IgG HRP (GE Healthcare) secondary antibodies. Proteins were visualized by 4CN Plus Chromogenic Substrate (PerkinElmer).

The subject of data set [3] is trypsin. Nature of the data set: Limited proteolysis by trypsin. Particulars: BCL-2 20 μM, trypsin 0.04-9.44 μM, 1 h, room temperature, SDS-PAGE. The method, then:
Fig. 3 Structural differences between WT and EEE. a An illustration of mutation sites prepared for spin-labeling ESR studies. b Distance distributions of various double-spin-labeled BCL-2 (WT or EEE) mutants are determined from the experimental DEER data. […] As highlighted, the displacements of α1 and α2 account for the major differences. d An illustration highlighting the positions of α2–α7 and the binding groove. Structures of WT and EEE are colored as in c. Helices α4–α7 change little between the WT and EEE. The displacement of α2 is critical to the change in the local environment of the binding groove. e Limited proteolysis of BCL-2 (20 μM) analyzed on SDS–PAGE. Trypsin concentrations were 0.04, 0.11, 0.34, 1.03, 3.11, 9.44 μM. Incubation time was 1 h at room temperature. It confirms that tertiary conformations of WT versus EEE are indeed different.
BCL-2 conformational change was assessed by limited proteolysis using trypsin (MERCK). In brief, 5 µg BCL-2 (WT or EEE) was digested at enzyme/substrate ratios ranging from 1:2 to 1:461 for 1 h at room temperature. Proteolysis was quenched by adding 1 mM PMSF, and then samples were confirmed by SDS–PAGE with Coomassie blue staining.

Data set [4] has as its system BAX. Description: FRAP-GUV pore-forming activity of BAX, 10-kDa F-dextran. The class given is biochemical, mouse. Set-up: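 unitless ratio D/D0 relative to diffusion coefficient after Triton X-100 disruption of GUVs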. Particulars: 10 kDa F-dextran. On the procedure: (§1) Briefly, GUVs were incubated with the proteins of interest over a period of time (Fig. 2c), followed by photobleaching within individual GUVs. A series of fluorescent images were collected over time after the photobleaching and then analyzed to yield the diffusion coefficients of Fluor molecules (including FITC-labeled 70-kDa, and Alexa-647-labeled 10-kDa probes) using the theoretical approach detailed in the “Methods” section. As Fluor molecules are homogeneously dispersed in the solution (outside and inside of GUVs) before the incubation with BAX and activators, it is reasonable to expect that the larger the induced pore area on the surface of a GUV, the greater the diffusion coefficient. Thus, the diffusion coefficient is directly related to the pore-forming activity of activated BAX. As the pore-forming activity is proportional to the concentration of BAX[18], we fixed the total amount of added BAX in all of the measurements below (see the “Methods” section).
(§2) Full-length BAX and variants were prepared as previously described[18],[22],[35]. Mouse BAX was cloned into pTYB1 vector (New England Biolabs, Inc.), resulting pTYB1-BAX construct. The pTYB1-BAX construct encoding a fusion protein of BAX with chitin-binding peptide was separated by a self-cleavable intein tag to obtain a full-length BAX. Wild-type BAX has two native cysteine residues at 62 and 126. Cysteine-free construct (C62S/C126S) was used to prepare single-cysteine BAX variants for conjugating fluorescence probes (e.g., BAX136C in Fig. 1d). Point mutations of recombinant BAX were generated using a QuikChange mutagenesis kit. Proteins were expressed in E. coli (ER2566) strain (New England Biolabs, Inc.) and purified without detergent. Bacterial cultures were grown at 37 °C in LB medium containing 0.1 g/L ampicillin to reach an OD600 of 1.0. BAX expression was induced by addition of 0.3 mM IPTG at 30 °C for 6−8 h. The cells were harvested by centrifugation and resuspended in ice-cold lysis buffer (20 mM Tris–HCl, pH 7.0, 500 mM NaCl and 1 mM PMSF). The resuspended pellet was sonicated on ice for 30 min, followed by centrifugation at 12,800 × g for 50 min. […] The resins were incubated in a pre-equilibrated buffer (20 mM sodium phosphate, pH 8.0, 100 mM NaCl, 60 mM dithiothreitol (DTT)) for 48 h. Proteins were eluted from column and further purified by a SEC using a HiLoad 16/60 Superdex 75 column (GE Healthcare) pre-equilibrated in PB buffer (20 mM sodium phosphate, pH 7.4, 100 mM NaCl). Purified proteins were confirmed by SDS–PAGE with Coomassie blue staining. Protein concentration was determined using absorption spectroscopy at 280 nm.
(§3) All lipids used were purchased from Avanti Polar Lipids. […] Texas Red 1,2-dihexadecanoyl-sn-glycero-3-phosphoethanolamine (TR-DPPE) (Invitrogen) of 0.05% was added to the lipid mixture for virtualization of GUV[18],[26],[27]. GUVs were prepared with the gel-assisted swelling on a polyvinyl alcohol (PVA) gel[39]. A 5% (w/w) solution of PVA (MW 145,000) was prepared by stirring PVA in ddH2O while heating at 90 °C. PVA solution was spread on a microscope coverslip (18 × 18 mm, Matsunami, Japan) and then dried at 50 °C. Lipid mixture (1 mg/mL) dissolved in chloroform were spread on the dry PVA film and placed under vacuum for 30 min to evaporate the solvent. Lipids were rehydrated for 1 h in PB buffer. The resulting GUVs were transferred to an Eppendorf tube using blunt tips.
(§4) FRAP measurements were performed as described previously. […] All reactions were at room temperature and the final volume was 200 μL.

Data set [5] concerns BAX. Nature of the data set: FRAP-GUV pore-forming activity of BAX, 70-kDa F-dextran. The class given is biochemical, mouse. Set-up: FRAP pore-forming activity / FRAP pore-forming activity, average / p (FRAP-70k-p), Average: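 unitless ratio D/D0 relative to diffusion coefficient after Triton X-100 disruption of GUVs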. On the procedure:
as §1, §2, §3, §4

Regarding “BimBH3-AL488: BimBH3 peptide labeled with Alexa Fluor 488 at C-terminal cysteine (FRET acceptor)”, the “molecular association with EEE compared with S70E or WT (in words)” value in data set [1] is given as “associated with EEE-PB more potently than with S70E-PB or WT-PB”.

In the case of “S70E: less potent phosphomimetic mutant S70E of TM-truncated BCL-2”, the “Cytochrome c release, Average” value in data set [2] (BAX+BimBH3 + 2uM BCL-2 protein) was determined as 76.6421; in data set [2] (BAX+BimBH3 + 4uM BCL-2 protein) it was 24.3731; in data set [2] (BAX+BimBH3 + 6uM BCL-2 protein) it was 15.7119.

With “WT: TM-truncated wild-type human BCL-2 (BCL-2-ΔTM, residues 1–217, C-terminal His6-tag)”, the “Cytochrome c release, Average” value in data set [2] (BAX+BimBH3 + 2uM BCL-2 protein) is given as 77.3682; in data set [2] (BAX+BimBH3 + 4uM BCL-2 protein) it was 50.0022; in data set [2] (BAX+BimBH3 + 6uM BCL-2 protein), 21.4104. In data set [3], the “susceptibility to trypsin proteolysis (in words)” value is “susceptible to proteolysis and rapidly degraded to fragments”.

B1: EEE-PB: EEE labeled with Pacific Blue (FRET donor) (conjugate)
chain: MAHAGRTGYDNREIVMKYIHYKLSQRGYEWDAGDVGAAPPGAAPAPGIFSSQPGHTPHPAASRDPVAREEPLQTPAAPGAAAGPALEPVPPVVHLTLRQAGDDFSRRYRRDFAEMSSQLHLTPFTARGRFATVVEELFRDGVNWGRIVAFFEFGGVMCVESVNREMSPLVDNIALWMTEYLNRHLHTWIQDNGGWDAFVELYGPSMRPLFDFSWLSL
modifications: Pacific Blue (maleimide) on the native cysteine 158; left off: His6, C-terminal, state not stated
Consider B1, for which the “FRAP pore-forming activity, average” value in data set [4] (mean of trials) worked out at 0.001441; in data set [5] (70 kDa F-dextran, mean of trials), 0.000389. Further, the FRAP pore-forming activity in data set [4] (trial1) stood at 0.0008772; in data set [4] (trial2), 0.0007018; in data set [4] (trial3), 0.0003509; in data set [4] (trial4), 0.0008772; in data set [4] (trial5) it was 0.001228; in data set [4] (trial6), 0.0007018. The FRAP pore-forming activity in data set [4] (trial7) is reported as 0.001228; in data set [4] (trial8), 0.002456; in data set [4] (trial9) it was 0.002807; in data set [4] (trial10) it was 0.001579; in data set [4] (trial11), 0.002105; in data set [4] (trial12), 0.001404. For the same molecule, the FRAP pore-forming activity in data set [4] (trial13) is on record as 0.001579; in data set [4] (trial14), 0.002281; in data set [5] (70 kDa F-dextran, trial1), 0.00033; in data set [5] (70 kDa F-dextran, trial2), 0.000165; in data set [5] (70 kDa F-dextran, trial3), 0.000165; in data set [5] (70 kDa F-dextran, trial4) it was 0.00033. The FRAP pore-forming activity in data set [5] (70 kDa F-dextran, trial5) is 0.00033; in data set [5] (70 kDa F-dextran, trial6) it was 0.000165; in data set [5] (70 kDa F-dextran, trial7), 0.00033; in data set [5] (70 kDa F-dextran, trial8), 0.0006601; in data set [5] (70 kDa F-dextran, trial9) it was 0.0008251; in data set [5] (70 kDa F-dextran, trial10), 0.000495. Further, the FRAP pore-forming activity in data set [5] (70 kDa F-dextran, trial11) came out at 0.000495; in data set [5] (70 kDa F-dextran, trial12), 0.00033; in data set [5] (70 kDa F-dextran, trial13), 0.00033; in data set [5] (70 kDa F-dextran, trial14), 0.000495. Also, the “pore-forming activity / effect on BAX-induced membrane pores on GUV (in words)” value in data set [5] (10- and 70-kDa F-dextran, BAX 1 µM, BimBH3 2 µM, BCL-2 1 µM, ABT-199 30 µM, room temperature, Fig. 2c) was “The ability of EEE to sequester BimBH3 is similar to that of EEE-PB”.
